Results as given in patent US20230183352A1.
Substitutions are numbered along the chain they refer to.

B1: QP190191 (antibody, human IgG1, V domains shown)
VH: EVKLVESGGGLVKPGGSLKLSCAASGFTFSNYAMSWVRQTPEKRLEWVASIISGGRTYYLDSEKGRFTISRDNARNNLYLQMSSLRSEDTAMYYCTRIYYGNSFDYWGQGTTLTVSS
VL: DIVMTQSPSSQTVTAGEKVTMSCKSSQSLLNSGNQKNYLTWYQQKPGQPPKLLIYWASTRESGVPDRFTGSGSGTDFTLTISNMQAEDLAVYYCQNDYSYPFTFGSGTKLEIK
B2: QP201202 (antibody, human IgG1, V domains shown)
VH: EVQLQQSGPELVKPGASVKMSCKASGYTFTNYFVHWVKQKPGQGLEWIGYINPYNDDTKYNEKFKGKATLTSDKSSSTAYMDLSSLTSEDSAVYYCLSLRFFAYWGQGTLVTVSA
VL: B1 VL with Q11L, P49A, T69I, N83H, M84V, Y93F, F102L, S106A, K109N, I112L
B3: QP199200 (antibody, human IgG1, V domains shown)
VH: DVQLVESGGGLVQPGGSRKLSCAASGFTFSSFGMHWVRQAPEKGLEWVAYISSGSNSIYYVDTVKGRFTISRDNPKNTLFLQMTSLKSEDTAMYYCARNAYYGNSFDYWGQGTTLTVSS
VL: B1 VL with Q11L, D76V, N83S, M84V, Y93F, D97N, S99Y, F102L, S106A, I112L
B4: QP207208 (antibody, human IgG1, V domains shown)
VH: EVQLQQSGPELVKPGASVKMSCKASGYTFTSYIMHWVKQKPGQGLEWIGYINPYNDGTKYNEKFKGKATLTSDKSSSTVYMELSSLTSEDSAVYCCARLGFTTRNAMDYWGQGTSVTVSS
VL: B1 VL with Q11L, T12S, T14S, S22N, T40A, W56G, N83S, M84V, Y98H
B5: QP192193 (antibody, human IgG1, V domains shown)
VH: QVQLQQSGAELVRPGSSVKISCKASGYAFSSYWMNWVKQRPGQGLEWIGQIYPGNGDTTYNGKFKGQATLTADKSSSTVYMQLSSLTSEDSAVYFCARFVKGNAMDYWGQGTSVTVSS
VL: B1 VL with Q11L, K45N, L52M, T75I, T78S, N83S, M84V, V91L, D97A
B6: QP1166 (Fc fusion, not shown: a dimerising Fc or GST)
chain: QVQLVESGGDSVQPGGSLRLSCAASGFTYGTYAMSWFRQAPGKEREGVACIDIYGRTSYTDPVKGRFTISQDNAKNTLYLQMNSLKPEDTAMYYCAARDFGYCTASWVHEGFSRYWGQGTQVTVSS
B7: QP320 (Fc fusion, not shown: a dimerising Fc or GST)
chain: EVQLLESGGGLVQPGGSLRLSCAASGFTYGTYAMSWVRQAPGKGLEWVSCIDIYGRASYTDPVKGRFTISRDNSKNTLYLQMNSLRAEDTAVYYCAARDFGYCTASWVHEGFSRYWGQGTLVTVSS
B8: QP324 (Fc fusion, not shown: a dimerising Fc or GST)
chain: B7 chain with S49A, A57T, R71Q
B9: QP325 (Fc fusion, not shown: a dimerising Fc or GST)
chain: B7 chain with V37F, W47G, S49A, A57T, R71Q

What follows are binders tested against Claudin 18.1 (CLDN18.1), expressed on CHOS-CLDN18.1 cells (UniProt P56856) (assay: FACS, CHOS-CLDN18.1 cells, 10 µg/ml).
Chain of Claudin 18.1 (CLDN18.1), expressed on CHOS-CLDN18.1 cells (P56856 whole entry): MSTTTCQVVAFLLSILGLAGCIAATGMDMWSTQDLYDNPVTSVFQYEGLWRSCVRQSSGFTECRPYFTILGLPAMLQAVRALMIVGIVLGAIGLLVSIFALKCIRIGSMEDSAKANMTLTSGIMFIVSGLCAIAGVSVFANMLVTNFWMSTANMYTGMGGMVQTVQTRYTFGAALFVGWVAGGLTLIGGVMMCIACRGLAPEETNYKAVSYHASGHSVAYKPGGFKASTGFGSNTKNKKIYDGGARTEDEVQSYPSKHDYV

MFI	Binder
1060	B1
1150	B2
918	B3
1320	B4
1030	B5

What follows are binders tested against Biotin QP004.3 (biotin-PDL1-FC) (human) (UniProt Q9NZQ7) (assay: binding ELISA, antibody coated, biotin-PDL1-FC titrated).
Chain of Biotin QP004.3 (biotin-PDL1-FC) (human) (Q9NZQ7 19-238 limits assumed): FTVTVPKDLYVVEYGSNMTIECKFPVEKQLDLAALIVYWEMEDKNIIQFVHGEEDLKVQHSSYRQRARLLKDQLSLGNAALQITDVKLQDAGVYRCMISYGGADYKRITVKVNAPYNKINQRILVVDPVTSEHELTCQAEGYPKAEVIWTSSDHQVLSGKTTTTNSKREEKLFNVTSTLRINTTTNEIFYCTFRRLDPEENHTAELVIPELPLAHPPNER

ELISA reading at 0.0007 µg/ml biotin-PDL1-FC	ELISA reading at 0.0021 µg/ml biotin-PDL1-FC	ELISA reading at 0.0062 µg/ml biotin-PDL1-FC	ELISA reading at 0.0185 µg/ml biotin-PDL1-FC	ELISA reading at 0.0556 µg/ml biotin-PDL1-FC	ELISA reading at 0.1667 µg/ml biotin-PDL1-FC	ELISA reading at 0.5000 µg/ml biotin-PDL1-FC	ELISA reading at 2.0000 µg/ml biotin-PDL1-FC	Binder
0.217	0.56	1.55	2.57	3.23	3.13	3.28	3.41	B6
0.125	0.114	0.108	0.0792	0.0843	0.0957	0.142	0.23	B7
0.192	0.141	0.15	0.107	0.0882	0.129	0.201	0.413	B8
0.182	0.598	1.32	2.12	2.78	3.11	3.21	3.42	B9

Each binder was assayed against Biotin QP004.3 (biotin-PDL1-FC) (human) (UniProt Q9NZQ7) (assay: blocking ELISA, PD1-FC coated, biotin-PDL1-FC plus antibody; competitor PD1-FC).

ELISA reading at 0.0457 nM antibody	ELISA reading at 0.1372 nM antibody	ELISA reading at 0.4115 nM antibody	ELISA reading at 1.2346 nM antibody	ELISA reading at 3.7037 nM antibody	ELISA reading at 11.1111 nM antibody	ELISA reading at 33.3333 nM antibody	ELISA reading at 100.0000 nM antibody	Binder
1.16	1.24	1.06	1.13	1.06	0.508	0.239	0.167	B6
1.21	1.3	1.47	1.08	1.11	1.12	1.02	0.793	B7
1.29	1.06	0.901	0.879	0.895	0.753	0.737	0.661	B8
1.08	1.02	0.975	0.995	1.03	0.513	0.238	0.156	B9
